The target of the test is Stenotrophomonas maltophilia EntB (Stenotrophomonas maltophilia K279a). Kind of test: SEC; analytical size-exclusion chromatography; estimated molecular weight 61.8 kDa.

As usually defined, the stoichiometry N is the number of molecules, sites or subunits per partner or assembly. In the case of “Stenotrophomonas maltophilia EntB (enzyme)”, the stoichiometry N is 2.
